From the PETadex activity labels (doi:10.1073/pnas.2006753117)

B1: unnamed (protein)
chain: MNFPRASRLMQAAVLGGLMAVSAAATAQTNPYARGPNPTAASLEASAGPFTVRSFTVSRPSGYGAGTVYYPTNAGGTVGAIAIVPGYTARQSSIKWWGPRLASHGFVVITIDTNSTLDQPSSRSSQQMAALRQVASLNGTSSSPIYGKVDTARMGVMGCSMGGGGSLISAANNPSLKAAAPQAPWDSSTNFSSVTVPTLIFACENDSIAPVNSSALPIYDSMSRNAKQFLEINGGSHCCANSGNSNQALIGKKGVAWMKRFMDNDTRYSTFACENPNSTRVSDFRTANCS
B2: unnamed (protein)
chain: MNFPRASRLMQAAVLGGLMAVSAAATAQTNPYARGPNPTAASLEASAGPFTVRSFTVSRPSGYGAGTVYYPTNAGGTVGAIAIVPGYTARQSSIKWWGPRLASHGFVVITIDTNSTLDQPSSRSSQQMAALRQVASLNGTSSSPIYGKVDTARMGVMGWSMGGGGSLISAANNPSLKAAAPQAPWDSSTNFSSVTVPTLIFACENDSIAPVNSSALPIYDSMSRNAKQFLEINGGSHSCANSGNSNQALIGKKGVAWMKRFMDNDTRYSTFACENPNSTRVSDFRTANCS
B3: unnamed (protein)
chain: MKSSIPISVGMLATALISGCGSVPDNTSNEPTVPLASKELCEGIASGATKVNWPNQNTVVKASVWHAVTPATANAPELPEHCEVTGSINQRTGVDGYPYEIKMRLRMPADWNGRFFMEGGGGTNGSLSAALGSLGGGQTSNALSRRFATVSTDGGHDNAVNNNPAALGSVAFGMDPQARLDHGYNSYDQVTLAGKSAVSTFYGRGPDKSYFIGCSEGGREGMMFSQRFPAHYDGIVAGAPGYQLPKAGISGAWTTQSLAPAAVGVDPDGAPLVNKSFSDPDLYLLTQAILGSCDALDGLADGIVGNYSACQSLFDPSTALNPATGQPLRCTGAKTDDCLSPVQVDAIKRAMSGPVDTAGTALYNKWPWDTGMSGLNGTTYFQGWRSWWLGSYDSSTNNAQRVNGSSARSWLVDFATPPEPVPLNQVATRMMNFDFDVDPPKIFATSGLFTQPSMQWHGATSTDLNAFRSRGGKLMLYHGMADAAFSALDTIAYYERLSTAMPSVSDFSRLFLVPGMGHCSGGPGTDRFDMLTPLVAWVENGTAPARVEASSSTPGYFGVSARSRPLCPHPQIARYTGSGDINEATNFVCGNP
B4: unnamed (protein)
chain: MQTTVTTMLLASVALAACAGGGSTPLPLPQQQPPQQEPPPPPVPLASRAACEALKDGNGDMVWPNAATVVEVAAWRDAAPATASAAALPEHCEVSGAIAKRTGIDGYPYEIKFRLRMPAEWNGRFFMEGGSGTNGSLSAATGSIGGGQIASALSRNFATIATDGGHDNAVNDNPDALGTVAFGLDPQARLDMGYNSYDQVTQAGKAAVARFYGRAADKSYFIGCSEGGREGMMLSQRFPSHYDGIVAGAPGYQLPKAGISGAWTTQSLAPAAVGLDAQGVPLINKSFSDADLHLLSQAILGTCDALDGLADGIVDNYRACQAAFDPATAANPANGQALQCVGAKTADCLSPVQVTAIKRAMAGPVNSAGTPLYNRWAWDAGMSGLSGTTYNQGWRSWWLGSFNSSANNAQRVSGFSARSWLVDFATPPEPMPMTQVAARMMKFDFDIDPLKIWATSGQFTQSSMDWHGATSTDLAAFRDRGGKMILYHGMSDAAFSALDTADYYERLGAAMPGAAGFARLFLVPGMNHCSGGPGTDRFDMLTPLVAWVERGEAPDQISAWSGTPGYFGVAARTRPLCPYPQIARYKGSGDINTEANFACAAPP

How the values were obtained:
MHET = experiment: Proxy for plastic degradation [kcat] (s⁻¹); conditions: pH 7.5
PET = experiment: Proxy for plastic degradation [Released monomer concentration (HPLC/LC-MS) (BHET+MHET+TPA)]; conditions: pH 7.5; part of the chain shown

| Protein | Proxy for plastic degradation (MHET) | Proxy for plastic degradation (MHET; part of the chain shown) | Proxy for plastic degradation (PET) |
| --- | --- | --- | --- |
| B1 | 0.03 | – | – |
| B2 | – | 0 | – |
| B3 | 3.8 | – | – |
| B4 | – | 27.6 | 0 mM |
